Measured values as given in the supplement of paper PMC5998384.

How the values were obtained:
HeLa Kyoto [1] = test: melting temperature (median over replicates), in situ; higher = more thermally stable
HeLa Kyoto [2] = test: thermal stability score vs G1/S (z-score of summed log2 fold changes over temperatures); higher = more thermally stable than in G1/S
HeLa Kyoto [3] = test: solubility change mitosis vs G1/S (difference of NP-40 vs SDS log2 ratios) (log2 ratio difference); higher = more soluble in mitosis
HeLa Kyoto [4] = test: solubility in G1/S (NP-40 vs SDS abundance) (log2 ratio); higher = more soluble; conditions: cell cycle stage: G1/S
[5] = cell cycle stage: early G1 (4.5 h after nocodazole release)
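Wherever melting temperature (median over replicates), in situ is given: HeLa Kyoto cells synchronized by double thymidine or nocodazole block, proteins quantified by TMT10plex mass spectrometry, three independent biological replicates.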
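Wherever solubility change mitosis vs G1/S (difference of NP-40 vs SDS log2 ratios) is given: synchronized HeLa Kyoto cells (double thymidine block for G1/S, nocodazole release for mitosis), protein amounts in NP-40 versus SDS lysates quantified by mass spectrometry, three biological replicates.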
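Wherever solubility in G1/S (NP-40 vs SDS abundance) is given: HeLa Kyoto cells arrested at G1/S by double thymidine block, proteins quantified by TMT10plex mass spectrometry in mild NP-40 versus SDS extracts, three biological replicates.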
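Wherever thermal stability score vs G1/S (z-score of summed log2 fold changes over temperatures) is given: synchronized HeLa Kyoto cells, proteins quantified by TMT10plex mass spectrometry, three biological replicates, mitosis taken 0.5 h after nocodazole release, G1/S directly after double thymidine block.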

Row | Sequence | melting temperature (HeLa Kyoto [1]; cell cycle stage: G1/S) | melting temperature (HeLa Kyoto [1]; cell cycle stage: mitosis) | thermal stability score (HeLa Kyoto [2]; [5]) | thermal stability score (HeLa Kyoto [2]; cell cycle stage: mitosis) | solubility change mitosis (log2) (HeLa Kyoto [3]) | solubility in G1/S (log2) (HeLa Kyoto [4])
1 | MPPRRSIVEVKVLDVQKRRVPNKHYVYIIRVTWSSGSTEAIYRRYSKFFDLQMQMLDKFPMEGGQKDPKQRIIPFLPGKILFRRSHIRDVAVKRLIPIDEYCKALIQLPPYISQCDEVLQFFETRPEDLNPPKEEHIGKKKSGGDQTSVDPMVLEQYVVVANYQKQESSEISLSVGQVVDIIEKNESGWWFVSTAEEQGWVPATCLEGQDGVQDEFSLQPEEEEKYTVIYPYTARDQDEMNLERGAVVEVIQKNLEGWWKIRYQGKEGWAPASYLKKNSGEPLPPKPGPGSPSHPGALDLDGVSRQQNAVGREKELLSSQRDGRFEGRPVPDGDAKQRSPKMRQRPPPRRDMTIPRGLNLPKPPIPPQVEEEYYTIAEFQTTIPDGISFQAGLKVEVIEKNLSGWWYIQIEDKEGWAPATFIDKYKKTSNASRPNFLAPLPHEVTQLRLGEAAALENNTGSEATGPSRPLPDAPHGVMDSGLPWSKDWKGSKDVLRKASSDMSASAGYEEISDPDMEEKPSLPPRKESIIKSEGELLERERERQRTEQLRGPTPKPPGVILPMMPAKHIPPARDSRRPEPKPDKSRLFQLKNDMGLECGHKVLAKEVKKPNLRPISKSKTDLPEEKPDATPQNPFLKSRPQVRPKPAPSPKTEPPQGEDQVDICNLRSKLRPAKSQDKSLLDGEGPQAVGGQDVAFSRSFLPGEGPGRAQDRTGKQDGLSPKEISCRAPPRPAKTTDPVSKSVPVPLQEAPQQRPVVPPRRPPPPKKTSSSSRPLPEVRGPQCEGHESRAAPTPGRALLVPPKAKPFLSNSLGGQDDTRGKGSLGPWGTGKIGENREKAAAASVPNADGLKDSLYVAVADFEGDKDTSSFQEGTVFEVREKNSSGWWFCQVLSGAPSWEGWIPSNYLRKKP [SH3PXD2B] | 48.9 °C | 49.9 °C | -0.513 | 0.253 | -0.129 | -0.0158
2 | MPSSPLRVAVVCSSNQNRSMEAHNILSKRGFSVRSFGTGTHVKLPGPAPDKPNVYDFKTTYDQMYNDLLRKDKELYTQNGILHMLDRNKRIKPRPERFQNCKDLFDLILTCEERVYDQVVEDLNSREQETCQPVHVVNVDIQDNHEEATLGAFLICELCQCIQHTEDMENEIDELLQEFEEKSGRTFLHTVCFY [SSU72] | 48.1 °C | 49.4 °C | 0.263 | -0.182 | -0.0234 | 0.4
3 | MPSTNRAGSLKDPEIAELFFKEDPEKLFTDLREIGHGSFGAVYFARDVRTNEVVAIKKMSYSGKQSTEKWQDIIKEVKFLQRIKHPNSIEYKGCYLREHTAWLVMEYCLGSASDLLEVHKKPLQEVEIAAITHGALQGLAYLHSHTMIHRDIKAGNILLTEPGQVKLADFGSASMASPANSFVGTPYWMAPEVILAMDEGQYDGKVDVWSLGITCIELAERKPPLFNMNAMSALYHIAQNESPTLQSNEWSDYFRNFVDSCLQKIPQDRPTSEELLKHIFVLRERPETVLIDLIQRTKDAVRELDNLQYRKMKKLLFQEAHNGPAVEAQEEEEEQDHGVGRTGTVNSVGSNQSIPSMSISASSQSSSVNSLPDVSDDKSELDMMEGDHTVMSNSSVIHLKPEEENYREEGDPRTRASDPQSPPQVSRHKSHYRNREHFATIRTASLVTRQMQEHEQDSELREQMSGYKRMRRQHQKQLMTLENKLKAEMDEHRLRLDKDLETQRNNFAAEMEKLIKKHQAAMEKEAKVMSNEEKKFQQHIQAQQKKELNSFLESQKREYKLRKEQLKEELNENQSTPKKEKQEWLSKQKENIQHFQAEEEANLLRRQRQYLELECRRFKRRMLLGRHNLEQDLVREELNKRQTQKDLEHAMLLRQHESMQELEFRHLNTIQKMRCELIRLQHQTELTNQLEYNKRRERELRRKHVMEVRQQPKSLKSKELQIKKQFQDTCKIQTRQYKALRNHLLETTPKSEHKAVLKRLKEEQTRKLAILAEQYDHSINEMLSTQALRLDEAQEAECQVLKMQLQQELELLNAYQSKIKMQAEAQHDRELRELEQRVSLRRALLEQKIEEEMLALQNERTERIRSLLERQAREIEAFDSESMRLGFSNMVLSNLSPEAFSHSYPGASGWSHNPTGGPGPHWGHPMGGPPQAWGHPMQGGPQPWGHPSGPMQGVPRGSSMGVRNSPQALRRTASGGRTEQGMSRSTSVTSQISNGSHMSYT [TAOK1] | 51.7 °C | 50.8 °C | 0.109 | -0.35 | -0.0943 | 0.0325
4 | MPTQRDSSTMSHTVAGGGSGDHSHQVRVKAYYRGDIMITHFEPSISFEGLCNEVRDMCSFDNEQLFTMKWIDEEGDPCTVSSQLELEEAFRLYELNKDSELLIHVFPCVPERPGMPCPGEDKSIYRRGARRWRKLYCANGHTFQAKRFNRRAHCAICTDRIWGLGRQGYKCINCKLLVHKKCHKLVTIECGRHSLPQEPVMPMDQSSMHSDHAQTVIPYNPSSHESLDQVGEEKEAMNTRESGKASSSLGLQDFDLLRVIGRGSYAKVLLVRLKKTDRIYAMKVVKKELVNDDEDIDWVQTEKHVFEQASNHPFLVGLHSCFQTESRLFFVIEYVNGGDLMFHMQRQRKLPEEHARFYSAEISLALNYLHERGIIYRDLKLDNVLLDSEGHIKLTDYGMCKEGLRPGDTTSTFCGTPNYIAPEILRGEDYGFSVDWWALGVLMFEMMAGRSPFDIVGSSDNPDQNTEDYLFQVILEKQIRIPRSLSVKAASVLKSFLNKDPKERLGCHPQTGFADIQGHPFFRNVDWDMMEQKQVVPPFKPNISGEFGLDNFDSQFTNEPVQLTPDDDDIVRKIDQSEFEGFEYINPLLMSAEECV [PRKCI] | 50.7 °C | 51 °C | 0.877 | 0.84 | -0.129 | -0.127
5 | MPTTIEREFEELDTQRRWQPLYLEIRNESHDYPHRVAKFPENRNRNRYRDVSPYDHSRVKLQNAENDYINASLVDIEEAQRSYILTQGPLPNTCCHFWLMVWQQKTKAVVMLNRIVEKESVKCAQYWPTDDQEMLFKETGFSVKLLSEDVKSYYTVHLLQLENINSGETRTISHFHYTTWPDFGVPESPASFLNFLFKVRESGSLNPDHGPAVIHCSAGIGRSGTFSLVDTCLVLMEKGDDINIKQVLLNMRKYRMGLIQTPDQLRFSYMAIIEGAKCIKGDSSIQKRWKELSKEDLSPAFDHSPNKIMTEKYNGNRIGLEEEKLTGDRCTGLSSKMQDTMEENSESALRKRIREDRKATTAQKVQQMKQRLNENERKRKRWLYWQPILTKMGFMSVILVGAFVGWTLFFQQNAL [PTPN2] | 49 °C | 49.2 °C | 0.409 | 1.35 | -0.142 | 0.0769
6 | MPVVRKIFRRRRGDSESEEDEQDSEEVRLKLEETREVQNLRKRPNGVSAVALLVGEKVQEETTLVDDPFQMKTGGMVDMKKLKERGKDKISEEEDLHLGTSFSAETNRRDEDADMMKYIETELKKRKGIVEHEEQKVKPKNAEDCLYELPENIRVSSAKKTEEMLSNQMLSGIPEVDLGIDAKIKNIISTEDAKARLLAEQQNKKKDSETSFVPTNMAVNYVQHNRFYHEELNAPIRRNKEEPKARPLRVGDTEKPEPERSPPNRKRPANEKATDDYHYEKFKKMNRRY [C9ORF78] | 57.3 °C | 55.1 °C | -2.13 | -4.34 | 0.0516 | 0.501
7 | MQANGAGGGGGGGGGGGGGGGGGGGQGQTPELACLSAQNGESSPSSSSSAGDLAHANGLLPSAPSAASNNSNSLNVNNGVPGGAAAASSATVAAASATTAASSSLATPELGSSLKKKKRLSQSDEDVIRLIGQHLNGLGLNQTVDLLMQESGCRLEHPSATKFRNHVMEGDWDKAENDLNELKPLVHSPHAIVVRGALEISQTLLGIIVRMKFLLLQQKYLEYLEDGKVLEALQVLRCELTPLKYNTERIHVLSGYLMCSHAEDLRAKAEWEGKGTASRSKLLDKLQTYLPPSVMLPPRRLQTLLRQAVELQRDRCLYHNTKLDNNLDSVSLLIDHVCSRRQFPCYTQQILTEHCNEVWFCKFSNDGTKLATGSKDTTVIIWQVDPDTHLLKLLKTLEGHAYGVSYIAWSPDDNYLVACGPDDCSELWLWNVQTGELRTKMSQSHEDSLTSVAWNPDGKRFVTGGQRGQFYQCDLDGNLLDSWEGVRVQCLWCLSDGKTVLASDTHQRIRGYNFEDLTDRNIVQEDHPIMSFTISKNGRLALLNVATQGVHLWDLQDRVLVRKYQGVTQGFYTIHSCFGGHNEDFIASGSEDHKVYIWHKRSELPIAELTGHTRTVNCVSWNPQIPSMMASASDDGTVRIWGPAPFIDHQNIEEECSSMDS [WDR26] | 52.1 °C | 50.7 °C | 0.266 | 0.763 | -0.151 | -0.108
8 | MQDGNFLLSALQPEAGVCSLALPSDLQLDRRGAEGPEAERLRAARVQEQVRARLLQLGQQPRHNGAAEPEPEAETARGTSRGQYHTLQAGFSSRSQGLSGDKTSGFRPIAKPAYSPASWSSRSAVDLSCSRRLSSAHNGGSAFGAAGYGGAQPTPPMPTRPVSFHERGGVGSRADYDTLSLRSLRLGPGGLDDRYSLVSEQLEPAATSTYRAFAYERQASSSSSRAGGLDWPEATEVSPSRTIRAPAVRTLQRFQSSHRSRGVGGAVPGAVLEPVARAPSVRSLSLSLADSGHLPDVHGFNSYGSHRTLQRLSSGFDDIDLPSAVKYLMASDPNLQVLGAAYIQHKCYSDAAAKKQARSLQAVPRLVKLFNHANQEVQRHATGAMRNLIYDNADNKLALVEENGIFELLRTLREQDDELRKNVTGILWNLSSSDHLKDRLARDTLEQLTDLVLSPLSGAGGPPLIQQNASEAEIFYNATGFLRNLSSASQATRQKMRECHGLVDALVTSINHALDAGKCEDKSVENAVCVLRNLSYRLYDEMPPSALQRLEGRGRRDLAGAPPGEVVGCFTPQSRRLRELPLAADALTFAEVSKDPKGLEWLWSPQIVGLYNRLLQRCELNRHTTEAAAGALQNITAGDRRWAGVLSRLALEQERILNPLLDRVRTADHHQLRSLTGLIRNLSRNARNKDEMSTKVVSHLIEKLPGSVGEKSPPAEVLVNIIAVLNNLVVASPIAARDLLYFDGLRKLIFIKKKRDSPDSEKSSRAASSLLANLWQYNKLHRDFRAKGYRKEDFLGP [PKP3] | 50.1 °C | 48.3 °C | -0.69 | -0.255 | 0.099 | -0.223
9 | MQEKDASSQGFLPHFQHFATQAIHVGQDPEQWTSRAVVPPISLSTTFKQGAPGQHSGFEYSRSGNPTRNCLEKAVAALDGAKYCLAFASGLAATVTITHLLKAGDQIICMDDVYGGTNRYFRQVASEFGLKISFVDCSKIKLLEAAITPETKLVWIETPTNPTQKVIDIEGCAHIVHKHGDIILVVDNTFMSPYFQRPLALGADISMYSATKYMNGHSDVVMGLVSVNCESLHNRLRFLQNSLGAVPSPIDCYLCNRGLKTLHVRMEKHFKNGMAVAQFLESNPWVEKVIYPGLPSHPQHELVKRQCTGCTGMVTFYIKGTLQHAEIFLKNLKLFTLAESLGGFESLAELPAIMTHASVLKNDRDVLGISDTLIRLSVGLEDEEDLLEDLDQALKAAHPPSGSHS [CTH] | 59 °C | 58.5 °C | -1.76 | -0.741 | -0.134 | 0.283
10 | MQGPPRSLRAGLSLDDFIPGHLQSHIGSSSRGTRVPVIRNGGSNTLNFQFHDPAPRTVCNGGYTPRRDASQHPDPAWYQTWPGPGSKPSASTKIPASQHTQNWSATWTKDSKRRDKRWVKYEGIGPVDESGMPIAPRSSVDRPRDWYRRMFQQIHRKMPDLQLDWTFEEPPRDPRHLGAQQRPAHRPGPATSSSGRSWDHSEELPRSTFNYRPGAFSTVLQPSNQVLRRREKVDNVWTEESWNQFLQELETGQRPKKPLVDDPGEKPSQPIEVLLERELAELSAELDKDLRAIETRLPSPKSSPAPRRAPEQRPPAGPASAWSSSYPHAPYLGSARSLSPHKMADGGSPFLGRRDFVYPSSTRDPSASNGGGSPARREEKKRKAARLKFDFQAQSPKELTLQKGDIVYIHKEVDKNWLEGEHHGRLGIFPANYVEVLPADEIPKPIKPPTYQVLEYGEAVAQYTFKGDLEVELSFRKGEHICLIRKVNENWYEGRITGTGRQGIFPASYVQVSREPRLRLCDDGPQLPTSPRLTAAARSARHPSSPSALRSPADPIDLGGQTSPRRTGFSFPTQEPRPQTQNLGTPGPALSHSRGPSHPLDLGTSSPNTSQIHWTPYRAMYQYRPQNEDELELREGDRVDVMQQCDDGWFVGVSRRTQKFGTFPGNYVAPV [SORBS3] | 51.2 °C | 52 °C | -0.822 | 0.186 | -0.0255 | 0.169
